Assay results from the supplement of paper PMC12042874.
± gives the uncertainty stated by the source.

Test: amyloid nucleation score (Sup35N fusion, yeast selection) (log enrichment); library NNK2; higher = more nucleation; inactive = no reads after selection
Summary of the method: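 Output and input plasmid inserts were sequenced by Illumina after psi-negative yeast carrying Sup35N fused to peptides of 20 random codons had been induced 24 hours with 100 μM copper sulfate and grown 7 days at 30°C on medium lacking adenine and uracil. The nucleation score is the DiMSum log enrichment of output over input reads, centred on the mode score of non-aggregating sequences. Sequences with under 100 input reads were excluded.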

| Substance | amyloid nucleation score |
| --- | --- |
| YGPGFILSQMMNWLWYSCSS | -0.765 ± 0.78 |
| YGQLRHFVRTGLDGGTHRGL | -0.174 ± 0.76 |
| YGRCNGLSGCQRGSCSREGG | 0.483 ± 0.46 |
| YGRRGELN | -0.422 ± 1.1 |
| YGVDLSRRMV | 0.043 ± 0.46 |
| YGVFYCSMPYCTSWGIHCVL | 7.19 ± 0.077 |
| YHFTLGCNSEGCR | -0.668 ± 0.24 |
| YHRYAAS | -0.077 ± 0.39 |
| YHVRIGSGRAVSLHV | 0.382 ± 0.5 |
| YHVVAWSWTRSYV | 0.561 ± 0.4 |
| YHWWDLLLTLREPVRWRIQP | 1.55 ± 0.23 |
| YICRGASGIKSQLREWDVAH | -0.269 ± 0.74 |
| YIDALSIVFCVAVIGHTPTW | 8.753 ± 0.039 |
| YIGLSRATWM | -1.75 ± 0.62 |
| YIGLVSS | -0.052 ± 0.65 |
| YIGSVIIWRRKVSRFHLGEA | 0.102 ± 0.79 |
| YIHVVNTVSAVGVRRGSVGT | 0.031 ± 0.76 |
| YIKFDGSTWKGVVFYYEMWE | -1.12 ± 0.76 |
| YINHSHVRGIVRIYNVQV | inactive |
| YIPIYMGWTGRNRTVMH | inactive |
| YITRFLPQVTVWQRVFCCSY | 7.454 ± 0.039 |
| YITVSSESAWHYTDQATFDA | -0.129 ± 1.1 |
| YIVDGVGCNCHTGSIVEMSL | -0.618 ± 0.32 |
| YKETFGIA | -1.36 ± 0.49 |
| YKFLLFFYVDTSYVMLFSGF | -0.887 ± 1.1 |
| YKFSPIHNSRCLNSLHWPKA | 0.439 ± 0.74 |

| Substance | amyloid nucleation score |
| --- | --- |
| YKSYSNPVLHHYSSLIPGPN | -0.001 ± 0.41 |
| YKVNWG | 0.854 ± 0.47 |
| YKVQTLDAPNYRFIGVFVRS | -0.711 ± 1.1 |
| YKWWCSW | -0.62 ± 0.76 |
| YLACFTARL | 3.91 ± 0.049 |
| YLFFKFWNAVCDLIHNTNLY | inactive |
| YLGMLYFLVASHASDFATYW | 4.16 ± 0.051 |
| YLGVSSCLMSSSGRSLASTL | 4.39 ± 0.09 |
| YLHLSQTQWLGLIFNRRSFD | 3.62 ± 0.068 |
| YLKMALVMIMYVITYRSTVG | 1.65 ± 0.31 |
| YLLFEWHYRHTYRCLVRVGA | -0.166 ± 0.76 |
| YLLLNYQACTMLDWNWVWVW | 5.31 ± 0.071 |
| YLMSFGPWGNYYFRSCKLWL | 6.42 ± 0.082 |
| YLNVNNSQDNESAYVFDKVV | 0.058 ± 0.74 |
| YLPPNKNWFFVWVDFSSWVF | -0.627 ± 0.61 |
| YLRTCI | -0.084 ± 0.49 |
| YLRTFAKYWNPNARQLSIMR | inactive |
| YLSDNHYWCWSYESF | -0.725 ± 0.41 |
| YLWDRSATRS | 0.605 ± 0.29 |
| YMADSPLELDSSMTDYLCPV | 4.18 ± 0.069 |
| YMSVSSKGQRVCFTT | -0.488 ± 0.63 |
| YMTVLLMSVFNWSQSRRPP | 3.55 ± 0.077 |
| YMVLSHVVQPFNHLGISWPC | inactive |
| YMYLTCSLGSVCRFLSEHMW | -0.605 ± 0.36 |
| YNARFSTNLTRFGVGF | -1.15 ± 1.1 |
| YNCLRMELVLSHKGDLTLM | 5.25 ± 0.091 |

| Substance | amyloid nucleation score |
| --- | --- |
| YNIFPIISLITRNK | 6.42 ± 0.064 |
| YNKGPLTGMFYMEGASVNIC | inactive |
| YNLYHSCLDQRTYHSGKFSI | 2.3 ± 0.14 |
| YNSCSYEIILGDFLWLLTGQ | 0.624 ± 0.2 |
| YNSTALKVSWRVRLGPWNWI | -0.06 ± 1.1 |
| YNSVVADKWCSFSK | 0.155 ± 1.1 |
| YNYPSVNIRLKIDLAGSLGC | 2.65 ± 0.097 |
| YNYWMQSLGSWVEVLSSVSV | -0.365 ± 0.5 |
| YPCVMFFPEPGEYCLVYRC | -0.608 ± 1.1 |
| YPNRFINTCFVRCNISLNNY | 8.485 ± 0.061 |
| YPSCKGSMPVFYSFPGGENA | 0.524 ± 0.5 |
| YRACCVYNLGEVEWGVWVVC | -0.31 ± 0.21 |
| YRARKASLTDVSSSVKVNMS | -0.026 ± 0.63 |
| YRFRSLSM | -1.14 ± 0.4 |
| YRILVNFAVVSMVRINRSFW | -1.48 ± 0.78 |
| YRLYHILECSGVMMS | -1.01 ± 0.44 |
| YRPNN | 2.43 ± 0.14 |
| YRPRDCISRVTYMRTVIVIL | -0.121 ± 1.1 |
| YRQMIRDYWIEKQSLHIRAD | 0.27 ± 0.56 |
| YRRGRLSMRSVWTKGCKERM | inactive |
| YRVFRFCNMASYLVSICHNG | -1.2 ± 0.64 |
| YSFAMLGGQESRMSMCCGER | 0.791 ± 0.32 |
| YSFCWLYNYPFIFYGFAFED | 5.951 ± 0.056 |
| YSFLHVIGANKFARACNNWS | -0.565 ± 0.78 |
| YSFMS | -0.458 ± 0.27 |
| YSFYAKSW | inactive |

| Substance | amyloid nucleation score |
| --- | --- |
| YSGFI | inactive |
| YSGFLRCLAYALI | 0.061 ± 0.8 |
| YSGTWLMVHKNLMVRKKLVP | 0.499 ± 0.38 |
| YSLCTTPMRAWVSYVFDVR | -1.04 ± 0.64 |
| YSLVRIFDGVWITRDSCNIL | inactive |
| YSLYEYFKSHLRKACVMPGW | inactive |
| YSNRLYFVLEAVVYL | 1.41 ± 0.32 |
| YSPSRVS | -0.493 ± 0.48 |
| YSRVILFHNGQMGVVMVPRW | inactive |
| YSSAGDVMLNRQLDGCWLTR | -0.006 ± 0.53 |
| YSSFFHFRVCNLCRWGSVSN | 0.121 ± 0.18 |
| YSSMGDNSRVRSFFVAVAGG | inactive |
| YSTEPSRHGIWNG | -0.735 ± 0.56 |
| YSVFNTSNFSALDPRFRRLF | 0.201 ± 0.8 |
| YSVYKTLA | -1.51 ± 0.78 |
| YSWVGLCPLIGRLYTGFAN | -1.71 ± 0.54 |
| YSWWW | 1.15 ± 0.66 |
| YTAIVRFWWVTQSVQFKNRD | -0.143 ± 0.8 |
| YTEQVYVYLGFLSHGASRYL | -0.716 ± 1.1 |
| YTISSIVVLDMFS | 1.41 ± 0.21 |
| YTKSQGAFT | -0.135 ± 0.65 |
| YTLFYARNLSSMDVICN | -1.09 ± 0.76 |
| YTNHSLNMHLWCRNS | inactive |
| YTRLYFNEHDFYFFVGIMT | inactive |
| YTRSYGPFPSHLVNLARNLS | -0.905 ± 0.32 |
| YTTNIF | -0.793 ± 0.49 |

| Substance | amyloid nucleation score |
| --- | --- |
| YTVWEEYHRAKSSGLT | 1 ± 0.33 |
| YTYSYATLNMWFQLT | 6.59 ± 0.033 |
| YVATKYMRLNTCNLFWGGLT | 6.368 ± 0.05 |
| YVATVWPLQSKRLSHRLMNG | 0.695 ± 0.43 |
| YVCFQFFDTC | 8.406 ± 0.038 |
| YVCGRENILFFERLKS | -0.327 ± 0.45 |
| YVCGWINVLG | -0.661 ± 0.63 |
| YVDWVNRTFQWFTGDVDDPV | -0.107 ± 0.39 |
| YVGGTVGV | -0.807 ± 0.64 |
| YVHVNIRYFYSLGDAVDKMP | 4.86 ± 0.11 |
| YVLGVF | 0.045 ± 0.79 |
| YVLPLPGNLNIMEAAGRYYA | 4.04 ± 0.057 |
| YVMSAVFYSVRFVAIETCKV | 0.155 ± 0.57 |
| YVNNLGRFCLLYRPWGMVNS | -0.196 ± 1.1 |
| YVQVFRSLDYNHHAKS | -0.508 ± 0.39 |
| YVRYGP | -0.289 ± 0.26 |
| YVSDYG | 0.199 ± 0.8 |
| YVSEQTHPMVIMYHFLRQHQ | -0.181 ± 0.5 |
| YVSLNQRVNFA | -1.47 ± 0.76 |
| YVSSVAIAFGLSVGLAYYPP | 5.26 ± 0.059 |
| YVYWWTYERMVSWSIYCVNT | 2.96 ± 0.097 |
| YWKVFFKAGWVVQSSAGMSA | 4.64 ± 0.068 |
| YWTGGLHNEHLSMHVSVYSN | -0.527 ± 1.1 |
